Laboratory results reported in article PMC12565409, “Computational–Experimental Identification of Palindromic Motifs Bound by Bacterial XRE Family Transcriptional Regulators”.

Target: Motif_38 protein HW450_07255 (UniProt A0A7G5FC37 1-70)
Assay: EMSA; EMSA: 20 mM Tris-HCl pH 7.5, 250 mM NaCl, 5% glycerol; 2 uL of 1 uM FAM-DNA (labeled:unlabeled strand 1:4) + 2 uL of ~10 uM protein in 20 uL; 37 C, 30 min
Settings: protein: recombinant; tags: His (pET-28a, Ni column); label: 5'FAM on strand 1; blunt

B1: Mot38-WT (dsDNA)
DNA 1: AATAAATCGGCACAATCGTGCCGATTTTGG
DNA 2: CCAAAATCGGCACGATTGTGCCGATTTATT
B1: binds.
